From the supplement of paper PMC11246515
± gives the standard deviation of the averaged measurements.

Assay: total protein half-life in vivo (active degradation + dilution); higher = more stable protein
[1] = E. coli NCM3722 delta-clpP delta-lon delta-hslV, growth: N-lim chemostat, doubling time 6 h
[2] = E. coli NCM3722 delta-clpP, growth: N-lim chemostat, doubling time 6 h
[3] = E. coli NCM3722 delta-hslV, growth: N-lim chemostat, doubling time 6 h
[4] = E. coli NCM3722 delta-lon, growth: N-lim chemostat, doubling time 6 h
[5] = E. coli NCM3722 delta-smpB, growth: N-lim chemostat, doubling time 6 h
[6] = wild type E. coli NCM3722, growth: C-lim chemostat, doubling time 3 h
[7] = wild type E. coli NCM3722, growth: C-lim chemostat, doubling time 6 h
[8] = wild type E. coli NCM3722, growth: C-lim chemostat, doubling time 12 h
[9] = wild type E. coli NCM3722, growth: N-lim chemostat, doubling time 6 h
[10] = wild type E. coli NCM3722, growth: N-lim chemostat, doubling time 12 h
[11] = wild type E. coli NCM3722, growth: P-lim chemostat, doubling time 6 h
[12] = wild type E. coli NCM3722, growth: P-lim chemostat, doubling time 12 h

Sequence: MTQQPQAKYRHDYRAPDYQITDIDLTFDLDAQKTVVTAVSQAVRHGASDAPLRLNGEDLKLVSVHINDEPWTAWKEEEGALVISNLPERFTLKIINEISPAANTALEGLYQSGDALCTQCEAEGFRHITYYLDRPDVLARFTTKIIADKIKYPFLLSNGNRVAQGELENGRHWVQWQDPFPKPCYLFALVAGDFDVLRDTFTTRSGREVALELYVDRGNLDRAPWAMTSLKNSMKWDEERFGLEYDLDIYMIVAVDFFNMGAMENKGLNIFNSKYVLARTDTATDKDYLDIERVIGHEYFHNWTGNRVTCRDWFQLSLKEGLTVFRDQEFSSDLGSRAVNRINNVRTMRGLQFAEDASPMAHPIRPDMVIEMNNFYTLTVYEKGAEVIRMIHTLLGEENFQKGMQLYFERHDGSAATCDDFVQAMEDASNVDLSHFRRWYSQSGTPIVTVKDDYNPETEQYTLTISQRTPATPDQAEKQPLHIPFAIELYDNEGKVIPLQKGGHPVNSVLNVTQAEQTFVFDNVYFQPVPALLCEFSAPVKLEYKWSDQQLTFLMRHARNDFSRWDAAQSLLATYIKLNVARHQQGQPLSLPVHVADAFRAVLLDEKIDPALAAEILTLPSVNEMAELFDIIDPIAIAEVREALTRTLATELADELLAIYNANYQSEYRVEHEDIAKRTLRNACLRFLAFGETHLADVLVSKQFHEANNMTDALAALSAAVAAQLPCRDALMQEYDDKWHQNGLVMDKWFILQATSPAANVLETVRGLLQHRSFTMSNPNRIRSLIGAFAGSNPAAFHAEDGSGYLFLVEMLTDLNSRNPQVASRLIEPLIRLKRYDAKRQEKMRAALEQLKGLENLSGDLYEKITKALA
- total protein half-life in vivo [1]: 5.11 ± 0.53 h
- total protein half-life in vivo [2]: 4.45 ± 0.1 h
- total protein half-life in vivo [3]: 4.27 ± 0.086 h
- total protein half-life in vivo [4]: 4.48 ± 0.29 h
- total protein half-life in vivo [5]: 4.38 ± 0.084 h
- total protein half-life in vivo [6]: 3.05 ± 0.19 h
- total protein half-life in vivo [7]: 5.55 ± 0.11 h
- total protein half-life in vivo [8]: 10.5 ± 0.56 h
- total protein half-life in vivo [9]: 4.36 ± 0.11 h
- total protein half-life in vivo [10]: 6.63 ± 0.16 h
- total protein half-life in vivo [11]: 5.89 ± 0.069 h
- total protein half-life in vivo [12]: 11.3 ± 0.68 h

Sequence: MTQTLLAIENLSVGFRHQQTVRTVVNDVSLQIEAGETLALVGESGSGKSVTALSILRLLPSPPVEYLSGDIRFHGESLLHASDQTLRGVRGNKIAMIFQEPMVSLNPLHTLEKQLYEVLSLHRGMRREAARGEILNCLDRVGIRQAAKRLTDYPHQLSGGERQRVMIAMALLTRPELLIADEPTTALDVSVQAQILQLLRELQGELNMGMLFITHNLSIVRKLAHRVAVMQNGRCVEQNYAATLFASPTHPYTQKLLNSEPSGDPVPLPEPASTLLDVEQLQVAFPIRKGILKRIVDHNVVVKNISFTLRAGETLGLVGESGSGKSTTGLALLRLINSQGSIIFDGQPLQNLNRRQLLPIRHRIQVVFQDPNSSLNPRLNVLQIIEEGLRVHQPTLSAAQREQQVIAVMHEVGLDPETRHRYPAEFSGGQRQRIAIARALILKPSLIILDEPTSSLDKTVQAQILTLLKSLQQKHQLAYLFISHDLHVVRALCHQVIILRQGEVVEQGPCARVFATPQQEYTRQLLALS
- total protein half-life in vivo [2]: 5.76 ± 0.31 h
- total protein half-life in vivo [3]: 6.42 ± 0.031 h
- total protein half-life in vivo [4]: 4.55 ± 0.74 h
- total protein half-life in vivo [5]: 5.67 ± 0.15 h
- total protein half-life in vivo [6]: 3 ± 0.32 h
- total protein half-life in vivo [7]: 5.64 ± 0.14 h
- total protein half-life in vivo [8]: 13.1 ± 0.73 h
- total protein half-life in vivo [9]: 5.87 ± 0.26 h
- total protein half-life in vivo [10]: 11.6 h
- total protein half-life in vivo [11]: 6.17 ± 0.13 h
- total protein half-life in vivo [12]: 11.9 ± 0.82 h

Sequence: MTQTLSQLENSGAFIERHIGPDAAQQQEMLNAVGAQSLNALTGQIVPKDIQLATPPQVGAPATEYAALAELKAIASRNKRFTSYIGMGYTAVQLPPVILRNMLENPGWYTAYTPYQPEVSQGRLEALLNFQQVTLDLTGLDMASASLLDEATAAAEAMAMAKRVSKLKNANRFFVASDVHPQTLDVVRTRAETFGFEVIVDDAQKVLDHQDVFGVLLQQVGTTGEIHDYTALISELKSRKIVVSVAADIMALVLLTAPGKQGADIVFGSAQRFGVPMGYGGPHAAFFAAKDEYKRSMPGRIIGVSKDAAGNTALRMAMQTREQHIRREKANSNICTSQVLLANIASLYAVYHGPVGLKRIANRIHRLTDILAAGLQQKGLKLRHAHYFDTLCVEVADKAGVLTRAEAAEINLRSDILNAVGITLDETTTRENVMQLFNVLLGDNHGLDIDTLDKDVAHDSRSIQPAMLRDDEILTHPVFNRYHSETEMMRYMHSLERKDLALNQAMIPLGSCTMKLNAAAEMIPITWPEFAELHPFCPPEQAEGYQQMIAQLADWLVKLTGYDAVCMQPNSGAQGEYAGLLAIRHYHESRNEGHRDICLIPASAHGTNPASAHMAGMQVVVVACDKNGNIDLTDLRAKAEQAGDNLSCIMVTYPSTHGVYEETIREVCEVVHQFGGQVYLDGANMNAQVGITSPGFIGADVSHLNLHKTFCIPHGGGGPGMGPIGVKAHLAPFVPGHSVVQIEGMLTRQGAVSAAPFGSASILPISWMYIRMMGAEGLKKASQVAILNANYIASRLQDAFPVLYTGRDGRVAHECILDIRPLKEETGISELDIAKRLIDYGFHAPTMSFPVAGTLMVEPTESESKVELDRFIDAMLAIRAEIDQVKAGVWPLEDNPLVNAPHIQSELVAEWAHPYSREVAVFPAGVADKYWPTVKRLDDVYGDRNLFCSCVPISEYQ
- total protein half-life in vivo [1]: 4.44 ± 0.46 h
- total protein half-life in vivo [2]: 3.621 ± 0.013 h
- total protein half-life in vivo [3]: 4.09 ± 0.11 h
- total protein half-life in vivo [4]: 4 ± 0.3 h
- total protein half-life in vivo [5]: 3.81 ± 0.18 h
- total protein half-life in vivo [6]: 3.022 ± 0.029 h
- total protein half-life in vivo [7]: 4.95 ± 0.14 h
- total protein half-life in vivo [8]: 8.75 ± 0.28 h
- total protein half-life in vivo [9]: 4.02 ± 0.13 h
- total protein half-life in vivo [10]: 6.79 ± 0.18 h
- total protein half-life in vivo [11]: 6.117 ± 0.035 h
- total protein half-life in vivo [12]: 11 ± 0.55 h

Sequence: MTQYWLGLDCGGSWLKAGLYDREGREAGVQRLPLCALSPQPGWAERDMAELWQCCMAVIRALLTHSGVSGEQIVGIGISAQGKGLFLLDKNDKPLGNAILSSDRRAMEIVRRWQEDGIPEKLYPLTRQTLWTGHPVSLLRWLKEHEPERYAQIGCVMMTHDYLRWCLTGVKGCEESNISESNLYNMSLGEYDPCLTDWLGIAEINHALPPVVGSAEICGEITAQTAALTGLKAGTPVVGGLFDVVSTALCAGIEDEFTLNAVMGTWAVTSGITRGLRDGEAHPYVYGRYVNDGEFIVHEASPTSSGNLEWFTAQWGEISFDEINQAVASLPKAGGDLFFLPFLYGSNAGLEMTSGFYGMQAIHTRAHLLQAIYEGVVFSHMTHLNRMRERFTDVHTLRVTGGPAHSDVWMQMLADVSGLRIELPQVEETGCFGAALAARVGTGVYHNFSEAQRDLRHPVRTLLPDMTAHQLYQKKYQRYQHLIAALQGFHARIKEHTL
- total protein half-life in vivo [7]: 4.05 ± 1.2 h
- total protein half-life in vivo [8]: 7.19 ± 1.2 h

Sequence: MTRIKINARRIFSLLIPFFFFTSVHAEQTAAPAKPVTVEAKNETFAPQHPDQYLSWKATSEQSERVDALAEDPRLVILWAGYPFSRDYNKPRGHAFAVTDVRETLRTGAPKNAEDGPLPMACWSCKSPDVARLIQKDGEDGYFHGKWARGGPEIVNNLGCADCHNTASPEFAKGKPELTLSRPYAARAMEAIGKPFEKAGRFDQQSMVCGQCHVEYYFDGKNKAVKFPWDDGMKVENMEQYYDKIAFSDWTNSLSKTPMLKAQHPEYETWTAGIHGKNNVTCIDCHMPKVQNAEGKLYTDHKIGNPFDNFAQTCANCHTQDKAALQKVVAERKQSINDLKIKVEDQLVHAHFEAKAALDAGATEAEMKPIQDDIRHAQWRWDLAIASHGIHMHAPEEGLRMLGTAMDKAADARTKLARLLATKGITHEIQIPDISTKEKAQQAIGLNMEQIKAEKQDFIKTVIPQWEEQARKNGLLSQ [P0ABK9]
- total protein half-life in vivo [1]: 3.84 h
- total protein half-life in vivo [2]: 5.87 h
- total protein half-life in vivo [8]: > 16 h
- total protein half-life in vivo [10]: 10.5 ± 0.82 h
